This passage reports stoichiometry N and Km results from PMC6862599, “Molecular Cloning and Exploration of the Biochemical and Functional Analysis of Recombinant Glucose-6-Phosphate Dehydrogenase from Gluconoacetobacter diazotrophicus PAL5” (International Journal of Molecular Sciences, 2019).

A word on the stoichiometry N: it is the number of molecules, sites or subunits per partner or assembly. For orientation: Km means the concentration of substrate that gives half-maximal velocity.

For data set [1], the target named is glucose-6-phosphate dehydrogenase (G6PD) from Gluconacetobacter diazotrophicus PAL5 (Gluconacetobacter diazotrophicus PAL5). As to the kind of experiment: SEC; Sephacryl 200 (16/60) gel filtration column, 100 mM Tris-HCl pH 7.35, 0.01 M MgCl2, 0.3 mL/min, AKTA pure FPLC; calibrated with Bio-Rad gel filtration standard; oligomeric state of the native protein.
Substrate in data set [2]: NC(=O)c1ccc[n+]([C@@H]2O[C@H](COP(=O)(O)OP(=O)(O)OC[C@H]3O[C@@H](n4cnc5c(N)ncnc54)[C@H](OP(=O)(O)O)[C@@H]3O)[C@@H](O)[C@H]2O)c1
As to the kind of experiment: purified protein. In kind it is biochemical, Gluconacetobacter diazotrophicus. The note with it: G6P fixed at 630 µM (~10-fold Km), NADP+ 0 to 250 µM.

Substrate in data set [3]: O=P(O)(O)OC[C@H]1OC(O)[C@H](O)[C@@H](O)[C@@H]1O
Description: purified protein. In kind it is biochemical, Gluconacetobacter diazotrophicus. The note with it: NADP+ fixed at 72 µM (~10-fold Km), G6P 0 to 2 mM.

Take “glucose-6-phosphate dehydrogenase (G6PD) from Gluconacetobacter diazotrophicus PAL5 (enzyme)”: in data set [1], the stoichiometry N worked out at 4.

B1: G6PD from GDI (Gluconacetobacter diazotrophicus PA1 5) (protein)
chain: MDGIVASASSEIQGAGLQPRRAPPCTFVVFGGGGDLTKRLLVPAIYNLACAGLLDDGFSIVAVDWAELSDDILRAQFHEALQDFVAKRGTAAAVLRDDIWRWLNTRVSYLRGSFEDPATFERLGARIGSGNAVFYLAVAARFFGTIVDRLGESHLTDEVGETYRRVIVEKPFGHDLNSARELNIRLLRTLRERQIYRIDHYLGKETVQNIMALRFSNGFFEPLWNRQNIDHVQITAAETVGVEKRGRFYEGTGALRDMVPNHLMQLLAMTAMEAPVSFDADAVRDEKSKVLKAIHCTGPEDVVRGQYGGGVLGGTPVRGYRDEPDVAPASRTETYVAMKLAIDNWRWAGVPFYLRTGKRLAVRKTEIAIHFRRAPYALFRDTPVDRLTPNIMTIHIQPTEGVTLQFGAKIPGPTVRLGGVRMKFDYSEWFSEGPSTGYETLIYDCLTGDATLFQRADNIEAGWRAVQPALDWGERTEAAPLCPYAAGSAGPIEADALLARDGRQWQDLAE
notes: full-length, N-terminal His6 tag removed by TEV protease, E. coli BL21(DE3)pLysS, 510 residues (ORF 1530 bp), 56,483 Da monomer, homotetramer 220 kDa
Regarding B1, the results for the Km in the data set “purified protein [2]” and in “purified protein [3]” were 7.2 µM and 63 µM, respectively.
